This note sets out measurements from publication PMC12403594, “On the self-assembly of αB-crystallin” (Soft Matter, 2025).

Series [1] deals with the molecule itself. The experiment in a line: static light scattering; day 7 after sample preparation; 10-69 μM αBC; 20 mM sodium phosphate, 0.2 mM EDTA, 0.02% NaN3, pH 8.0; 25 °C; aggregation number from the slope of the excess Rayleigh ratio at q = 0 against concentration.
Series [2] concerns the molecule itself. Description: static light scattering; day 0 (day of thawing and dilution); 10-69 μM αBC; 20 mM sodium phosphate, 0.2 mM EDTA, 0.02% NaN3, pH 8.0; 25 °C; aggregation number from the slope of the excess Rayleigh ratio at q = 0 against concentration.

B1: Recombinant human αB-crystallin (natural protein)
chain: MDIAIHHPWIRRPFFPFHSPSRLFDQFFGEHLLESDLFPTSTSLSPFYLRPPSFLRAPSWFDTGLSEMRLEKDRFSVNLDVKHFSPEELKVKVLGDVIEVHGKHEERQDEHGFISREFHRKYRIPADVDPLTITSSLSSDGVLTVNGPRKQVSGPERTIPITREEKPAVTAAPKK
notes: αB-crystallin, human; expressed from a synthetic gene with E. coli-optimized codons in a Pet3a vector; No tag is mentioned; The introduction gives 175 residues for the protein
As for B1, the “stoichiometry N” value in series [1] is 19; in series [2], 24.

As usually defined, the stoichiometry N is the number of molecules, sites or subunits per partner or assembly.
